Test results as given in paper PMC3024981, “It Takes Two to Tango: Defining an Essential Second Active Site in Pyridoxal 5′-Phosphate Synthase” (PLoS ONE, 2011).
Where a chain is given by its changes, count along the chain named. Numbers in names are those of the source. Where “and” joins values, the source holds several entries; their conditions need not be identical. Identical values can stand only once.

T1: Pdx1 R288K (Bacillus subtilis), native (untagged) (Bacillus subtilis, UniProt P37527 1-294, R288K)
T1 construct: Pdx1, synthase subunit of PLP synthase, Bacillus subtilis; also called Pdx1 R288K mutein; source: site directed mutagenesis of Pdx1; expressed and purified as described by Raschle et al. (2005)
T1 sequence: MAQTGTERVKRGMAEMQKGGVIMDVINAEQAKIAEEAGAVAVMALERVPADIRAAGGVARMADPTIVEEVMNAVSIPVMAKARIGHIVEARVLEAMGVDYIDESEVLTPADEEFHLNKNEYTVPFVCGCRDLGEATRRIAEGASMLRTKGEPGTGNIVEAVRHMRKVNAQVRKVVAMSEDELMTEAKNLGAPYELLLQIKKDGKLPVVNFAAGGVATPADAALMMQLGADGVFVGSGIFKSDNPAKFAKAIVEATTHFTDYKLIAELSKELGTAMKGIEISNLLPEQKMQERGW

B1: Pdx1 wild type (Bacillus subtilis), native (untagged) (enzyme)
chain: T1 sequence with K288R
notes: Pdx1, synthase subunit of PLP synthase, Bacillus subtilis; construct pETBsPdx1 of Raschle et al. (2005); Native means untagged; Dodecamer by SEC-MALS; also called BsPdx1 wild type; PLP synthase synthase subunit; source: construct pETBsPdx1; expressed and purified as described by Raschle et al. (2005); copies: 12
B2: Pdx1 K187A (Bacillus subtilis), hexahistidine tagged (enzyme)
chain: T1 sequence with K187A, K288R
notes: Pdx1, synthase subunit of PLP synthase, Bacillus subtilis; parent construct pETBsPdx1-His6 of Strohmeier et al. (2006); It is in a dodecamer:hexamer equilibrium by SEC-MALS; also called Pdx1 K187A mutein; source: site directed mutagenesis of Pdx1; expressed and purified as described by Raschle et al. (2005); not shown: His6, C-terminal, kept
B3: Pdx1 R288A (Bacillus subtilis), native (untagged) (enzyme)
chain: T1 sequence with K288A
notes: Pdx1, synthase subunit of PLP synthase, Bacillus subtilis; also called Pdx1 R288A mutein; source: site directed mutagenesis of Pdx1; expressed and purified as described by Raschle et al. (2005); copies: 12
B4: Pdx2 (glutaminase, activated by Pdx1) (Bacillus subtilis subsp. subtilis str. 168) (protein)
chain: MLTIGVLGLQGAVREHIHAIEACGAAGLVVKRPEQLNEVDGLILPGGESTTMRRLIDTYQFMEPLREFAAQGKPMFGTCAGLIILAKEIAGSDNPHLGLLNVVVERNSFGRQVDSFEADLTIKGLDEPFTGVFIRAPHILEAGENVEVLSEHNGRIVAAKQGQFLGCSFHPELTEDHRVTQLFVEMVEEYKQKALV
notes: Pdx2 with untagged wild-type Pdx1; with Pyridoxal 5'-phosphate synthase subunit PdxS
B5: Pdx2 H170N (Bacillus subtilis), catalytically inert mutein (enzyme, UniProt P37528 1-196, looked up)
chain: B4 chain with H170N
notes: Pdx2, glutaminase subunit of PLP synthase, Bacillus subtilis; It was used together with glutamine (Michaelis complex of Pdx2 H170N and glutamine); also called Pdx2-His6 H170N; Pdx2 H170N mutein; source: construct Pdx2-His6 H170N of Strohmeier et al. (2006); expressed and purified as described by Raschle et al. (2005)
B6: PLP synthase (Pdx1 + Pdx2), native Pdx1 (Bacillus subtilis subsp. subtilis str. 168) (protein)
chain: AQTGTERVKRGMAEMQKGGVIMDVINAEQAKIAEEAGAVAVMALERVPADIRAAGGVARMADPTIVEEVMNAVSIPVMAKARIGHIVEARVLEAMGVDYIDESEVLTPADEEFHLNKNEYTVPFVCGCRDLGEATRRIAEGASMLRTKGEPGTGNIVEAVRHMRKVNAQVRKVVAMSEDELMTEAKNLGAPYELLLQIKKDGKLPVVNFAAGGVATPADAALMMQLGADGVFVGSGIFKSDNPAKFAKAIVEATTHFTDYKLIAELSKELGTAMKGIEISNLLPEQRMQERGW
notes: complex of untagged Pdx1 with Pdx2; 24-subunit complex; with Pyridoxal 5'-phosphate synthase subunit PdxT
B7: PLP synthase (Pdx1-His6 + Pdx2) (Bacillus subtilis subsp. subtilis str. 168; K187A) (protein)
chain: B6 chain with K186A
notes: complex of C-terminally hexahistidine-tagged Pdx1 with Pdx2-His6; with Pyridoxal 5'-phosphate synthase subunit PdxT
B8: PLP synthase (Pdx1-His6 + Pdx2) (Bacillus subtilis subsp. subtilis str. 168; H115A/R138A) (protein)
chain: B6 chain with H114A, R137A
notes: as for B7
B9: PLP synthase (Pdx1-His6 + Pdx2) (Bacillus subtilis subsp. subtilis str. 168; H115A) (protein)
chain: B6 chain with H114A
notes: as for B7
B10: PLP synthase (Pdx1-His6 + Pdx2) (Bacillus subtilis subsp. subtilis str. 168) (protein)
chain: B6 chain
notes: as for B7
B11: PLP synthase (Pdx1-His6 + Pdx2) (Bacillus subtilis subsp. subtilis str. 168; E105D) (protein)
chain: B6 chain with E104D
notes: as for B7
B12: PLP synthase (Pdx1-His6 + Pdx2) (Bacillus subtilis subsp. subtilis str. 168; R138A) (protein)
chain: B6 chain with R137A
notes: as for B7

Tests used:
Pdx1 = target: T2, Pdx1 (Bacillus subtilis, UniProt P37527); test: ESI-MS (+[…] Da after NaBH4 reduction), tryptic peptide MALDI-TOF/TOF; assay type: biochemical; conditions: covalent Schiff base at K149 (P2 site); PLP made de novo from R5P, DL-G3P and ammonium sulfate
T2 construct: gene pdxS; full-length Pdx1 alone, native (untagged) from pETBsPdx1; dodecamer

[1] = target: the molecule itself; test: SEC-MALS; Superdex 200 10/300 GL, 100 µl at 1 mg/ml; 50 mM potassium phosphate pH 7.5, 50 mM potassium chloride, 0.01% sodium azide; miniDAWN TREOS; dodecamer to hexamers
[2] = substrate: NC(=O)CC[C@H](N)C(=O)O; test: coupled glutaminase assay; assay type: biochemical, Bacillus subtilis; conditions: activated by wild-type Pdx1, 50 mM Tris-Cl pH 7.5, 37°C
From the text: coupled glutaminase assay on Pdx2 (glutaminase, activated by Pdx1)

[3] = target: B1; test: other fluorescence titration; intrinsic protein fluorescence of Pdx1 titrated with increasing concentrations of Pdx2 H170N in the presence of glutamine, without R5P; decrease in fluorescence intensity; done as described in ref. 21; conditions: both partners purified
[4] = target: B3; test: as above; conditions: both partners purified
[5] = target: T1, Pdx1 R288K (Bacillus subtilis), native …; test: as above; conditions: both partners purified
purified protein = substrate: O=CC(O)COP(=O)(O)O; test: purified protein; assay type: biochemical, Bacillus subtilis; conditions: R5P and glutamine as co-substrates, 50 mM Tris-Cl pH 7.5, 37°C

Row | Molecule | Km (purified protein; His-tagged proteins) [µM] | kcat (purified protein; His-tagged proteins) [s⁻¹] | kcat/Km (purified protein; His-tagged proteins) [M⁻¹ s⁻¹] | further results
1 | Cc1ncc(COP(=O)(O)O)c(C=O)c1O [pyridoxal 5′-phosphate] |  |  |  | ESI-MS (+231 Da after NaBH4 reduction), tryptic peptide MALDI-TOF/TOF (Pdx1): demonstrate that PLP is covalently bound to Pdx1
2 | B1 |  |  |  | stoichiometry N [1]: 12
3 | B2 |  |  |  | stoichiometry N [1]: 12 and 6
4 | B3 |  |  |  | stoichiometry N [1]: 12
5 | B4 |  |  |  | Km [2]: 1160 ± 180 µM; kcat [2]: 0.0295 ± 0.00133 s⁻¹; kcat/Km [2]: 25.5 M⁻¹ s⁻¹
6 | B5 |  |  |  | binding result [3]: binds; binding result [4]: binds; binding result [5]: binds
7 | B6 |  |  |  | Km (purified protein): 186 ± 17 µM; kcat (purified protein): 0.00055 ± 3.3e-05 s⁻¹; kcat/Km (purified protein): 2.95 M⁻¹ s⁻¹
8 | B7 | 267 ± 18 | 0.0005 ± 1.7e-05 | 1.87 | 
9 | B8 | 307 ± 75 | 0.0001 ± 0 | 0.333 | 
10 | B9 | 229 ± 55 | 0.00013 ± 0 | 0.583 | 
11 | B10 | 155 ± 23 | 0.0006 ± 8.3e-05 | 3.87 | 
12 | B11 | 249 ± 26 | 0.000233 ± 1.7e-05 | 0.933 | 
13 | B12 | 262 ± 26 | 0.0002 ± 1.7e-05 | 0.767 | 
